Test results from article PMC3713452 (2013).

Target: T1, GST-Pdcd4 (GST fusion to full length Drosophila Pdcd4) (Drosophila, UniProt Q9VY91)
T1 chain: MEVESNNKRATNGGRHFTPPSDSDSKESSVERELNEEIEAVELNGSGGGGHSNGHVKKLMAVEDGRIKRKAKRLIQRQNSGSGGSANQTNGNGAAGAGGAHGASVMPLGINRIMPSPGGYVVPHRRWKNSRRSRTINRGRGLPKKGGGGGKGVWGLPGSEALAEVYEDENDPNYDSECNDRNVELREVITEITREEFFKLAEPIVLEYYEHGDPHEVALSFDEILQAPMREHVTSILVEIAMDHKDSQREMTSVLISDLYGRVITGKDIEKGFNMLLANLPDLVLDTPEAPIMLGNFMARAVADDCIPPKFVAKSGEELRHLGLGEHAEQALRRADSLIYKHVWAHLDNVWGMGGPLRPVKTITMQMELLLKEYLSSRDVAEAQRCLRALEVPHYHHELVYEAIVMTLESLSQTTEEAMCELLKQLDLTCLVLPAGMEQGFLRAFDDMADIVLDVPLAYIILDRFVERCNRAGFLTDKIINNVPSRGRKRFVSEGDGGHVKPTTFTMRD
Assay: GST pull-down (affinity chromatography, immunoblot)

binding result: binds
B1: recombinant Drosophila eIF4A (6His eIF4A) (protein)
chain: MDDRNEIPQDGPASMEPEGVIESTWHEVYDNFDDMNLREELLRGIYGYGFEKPSAIQQRAIIPCVRGRDVIAQAQSGTGKTATFSIAILQQIDTSIRECQALILAPTRELATQIQRVVMALGEYMKVHSHACIGGTNVREDARILESGCHVVVGTPGRVYDMINRKVLRTQYIKLFVLDEADEMLSRGFKDQIQDVFKMLPPDVQVILLSATMPPDVLEVSRCFMRDPVSILVKKEELTLEGIKQFYVNVKQENWKLGTLCDLYDTLSITQSVIFCNTRRKVDQLTQEMSIHNFTVSAMHGDMEQRDREVIMKQFRSGSSRVLITTDLLARGIDVQQVSLVINYDLPSNRENYIHRIGRGGRFGRKGVAINFITDDDRRILKDIEQFYHTTIEEMPANIADLI
